Experiments:
[1] = biological target: T1, 重组SARS-CoV-2刺突蛋白胞外区 (extra cellular domain of spike protein, S-ECD) (SARS-CoV-2), P0DTC2; experiment: indirect ELISA, S-ECD coated at 1 μg/ml, end-point titre; settings: remark: other sources report otherwise
[2] = biological target: T1, 重组SARS-CoV-2刺突蛋白胞外区 (extra cellular …); experiment: SPR, Biacore 8K, S-ECD immobilised on a CM5 chip, antibody 125-7.8 nM; settings: remark: other sources report otherwise

B1: FC05 (antibody)
chain 1: EVQLLEQSGAEVKKPGASVRVSCKVSGYTLPEVAMHWVRQAPGKGLEWMGGFDPEDGETIYAQKFQGRVTMTEDTSTDTAYMELSSLRSEDTAVYYCATTTPFSSSFWFDPWGQGTLVTVSS
chain 2: QSVLTQAPSVSGAPGQKVTISCSGSSSNIGNNYVSWYQQLPGTAPKLLIYDNNKRPSGIPDRFSGSKSGTSATLGITGLQTGDEADYYCGTWDSSLSAVVFGGGTKLTVL
- 抗体滴度 (dilution factor (1:x) from 1 mg/mL) [1]: 320000
- Kd [2]: 0.1 nM

Source: CN111620945A
